# Measured values from the RNAGym collection of RNA variant scans (doi:10.1073/pnas.2313332121).
# This sample holds only a part of the variants without activity.
# B1: TPR 5TU (parent)
# chain: GGAUCUUCUCGAUCUAACAAAAAAGACAAAUCUGCCACAAAGCUUGAGAGCAUCUUCGGAUGCAGAGGCGGCAGCCUUCGGUGGCGCGAUAGCGCCAACGUUCUCAACUAUGACACGCAAAACGCGUGCUCCGUUGAAUGGAGUUUAUCAUG
# Variants of: B1
# Assay: polymerase ribozyme fitness, log enrichment relative to wild type (log ratio); higher = more active; in vitro selection for triplet polymerase activity
# Method in brief: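 Input and output libraries were sequenced on Illumina after a single in vitro selection round, run in triplicate on PCR-built, transcribed mutant libraries of each subunit of a heterodimeric triplet polymerase ribozyme. Selection annealed libraries to a biotinylated primer, the partner subunit and triplets, incubated them frozen at −7 °C, then gel-excised extended constructs for streptavidin-bead capture and RT-PCR. Genotypes with ≥10 input reads and ≥1 read per output were kept. Fitness is the logarithm, taken in base 2, of genotype enrichment divided by wild-type enrichment, using inverse-variance-weighted replicate averages.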
row,Variant,polymerase ribozyme fitness (log ratio)
1,C10A A23U G83U,≤ -4.2
2,U9G G58C C93G C118U G143A U144C,≤ -4.2
3,G11A A21U C87A,≤ -4.2
4,C10G A37U U55A G94A C95G G140C,≤ -4.2
5,C10G G84A,-3.26
6,G11C A20U A40U U82G G83A C93A C108A,≤ -4.2
7,G11U A47C G50U C57G A64U C76G,≤ -4.2
8,U9G G25C C27U C35U U102A A147C,≤ -4.2
9,C10U A28U G94A U127G,-4.04
10,G11A A110G,-3.76
11,G11U A12G U15A G58C G94U U151G,≤ -4.2
12,C10G C38U G50A U90A U127C G128U U145A,≤ -4.2
13,G11U U104G,-1.58
14,U9G C103A,-3.73
15,C10G A12U A22G C35G G94A C95U C99A U111C,≤ -4.2
16,G11A C27U A49G C96A C118U U145A,-4.19
17,A12C A52C C54U C96A,-3.95
18,C10A C14U A30U C51A C57G G84A,≤ -4.2
19,G11C C85U A119G,-2.02
20,C10U G42C A49C A66G C79G A91G C125A A147G A150C,≤ -4.2
21,U9G C18U A39G A49C C51A G94U A106G,≤ -4.2
22,A12G A17U A49G A60G A91G,-2.9
23,C10A C87U,-3.47
24,C10U C76U A91U C95A A113U A120U,≤ -4.2

row,Variant,polymerase ribozyme fitness (log ratio)
1,C10A A47G A64G G81U G84U,≤ -4.2
2,A12C U53A C125G A150U U151G,≤ -4.2
3,G11A U82A,-1.4
4,G11A A49C,≤ -4.2
5,G11C C38A G59A C125G,-2.58
6,A12C C54U A91U,≤ -4.2
7,G11A A89G G94A C105G G112C,≤ -4.2
8,C10U G25U C32A C76A G83U G88C C93G,≤ -4.2
9,C10G A28C C51U C87U G88A A91C G117C G124U U130G,≤ -4.2
10,G11C A17G C32A C72U A113U G117U A122U U148G,≤ -4.2
11,C10U U45G A60C C85U,≤ -4.2
12,C10G A52U C72U G86U C93U C116G G124A U144C,≤ -4.2
13,C10U U15G A23U C43U U82C G92U U104C,≤ -4.2
14,A12C C57U C76G C96U,≤ -4.2
15,G11C A23U G48C C79A U82G G94U A142U,≤ -4.2
16,G11C U13A A64U G74C C85U C96G U102C,≤ -4.2
17,G11C C14A A16G C87U,≤ -4.2
18,C10U U55G,-3.19
19,C10U A39G U102C,≤ -4.2
20,A12C G25U U55A U56C G83C,≤ -4.2
21,C10A C32A C54U C116A G143A,≤ -4.2
22,C10G G68C G83U A107C,≤ -4.2
23,G11C U53A C72G C79A U82A U90G A106C,≤ -4.2
24,C10U U135A G141A C149G,≤ -4.2

row,Variant,polymerase ribozyme fitness (log ratio)
1,C10G A52G U56A C96U G140U,≤ -4.2
2,C10U C54U G71U C85A C96G G133C U145G G152A,≤ -4.2
3,A12C A39U G88C A115C G126A,≤ -4.2
4,G11U U61A C87U,-3.78
5,C10G C27A U82C G83A A91U,≤ -4.2
6,C10G C76A G83A A91U A106C C108A U130A,≤ -4.2
7,C10G C69G,-4.16
8,C10U C54A C69U C75U C87A,≤ -4.2
9,C10A C14U A26U A30G G84A U139G A142U,≤ -4.2
10,C10G C85U,-3
11,C10U C93U,-4.06
12,G11U G42C A47C G74A C96G C105U G140A,≤ -4.2
13,A12G A16C A119U A121G U135C U146A A150G,-4.12
14,C10G A37C G50A C95U C99A G143C,≤ -4.2
15,G11A C96G A120C U146C,-1.48
16,C10G A89G,≤ -4.2
17,C10A A37U G48A A64G G128U A142C,≤ -4.2
18,G11U G50U G68A G84U C114U A115U G136A,≤ -4.2
19,U9G A52G G71A A73G G128U G143U,≤ -4.2
20,A12C U13C A26C C27G G70A C96G,≤ -4.2
21,C10U G25U A40U C79U G84A A142C,≤ -4.2
22,A12C C76A A91U,≤ -4.2
23,G11A U61A C85A A122C A150C,≤ -4.2
24,C10U A28U A52G U56A A73C C93U U145C C149G,≤ -4.2

row,Variant,polymerase ribozyme fitness (log ratio)
1,C10G A30G C38A G94U C125G U144C,≤ -4.2
2,C10G A26C C76A G83A,≤ -4.2
3,C10A C54U G67C C85A A107U,≤ -4.2
4,C10U A17C C38U G58C C96G,-3.69
5,C10A A29C U44G G58A A60G A97U G141C,≤ -4.2
6,C10U A26U G42A A47U A89C C96U A107U G112C,≤ -4.2
7,G11A C51G C87G A89U C125A U135G,≤ -4.2
8,G11U G84A,-0.536
9,C10A C54G G80C G81A C85U C129A U135C,≤ -4.2
10,G11U C69U U134C,-1.33
11,C10A C63U G67A U77C G92A U127C U135G,≤ -4.2
12,C10A U13G G25C G34U U61A C63U G68C U77C C79A G86A,≤ -4.2
13,C10U A60G A64U C85U C129A,≤ -4.2
14,C10G A73G G92U,≤ -4.2
15,U9G C10U U77G G83A A110G,≤ -4.2
16,G11U A28U C43U C87A C99G G126A,-4.16
17,A12C A52G G68U A98U,-4.19
18,U9G G58A C75U G83U C95A C131A,≤ -4.2
19,G11U C38A A40C U53A G58A,-3.76
20,C10U C27G C54U C95G C96G A110G,≤ -4.2
21,C10G C14U C36A C79U G92U,≤ -4.2
22,A12C G25U C51G C72G C118G,≤ -4.2
23,G11C C35U,-2.11
24,G11U C18G C54A G88A C118A,≤ -4.2

row,Variant,polymerase ribozyme fitness (log ratio)
1,C10G A20C U33G C93A G94U C96G C114U U145A,≤ -4.2
2,C10G A30U C43G G58A G68A G80A A113C,≤ -4.2
3,A12G A19C A40G U45C G92A G141A,≤ -4.2
4,C10U A52U A60C G88U,≤ -4.2
5,G11U A30U G65U G70C C85G A91U C93A A150U,≤ -4.2
6,G11U G84A U90C A119G C125A,≤ -4.2
7,C10U U78A G86A A107G G124A G140A G141C,≤ -4.2
8,C10U A39G C54G C63A G70C C93U G141A,≤ -4.2
9,A12C C35U A49C A64U C95U C123U,≤ -4.2
10,C10G U13G A16C U56A G92C C105A C114U,≤ -4.2
11,U9G U61A C75U C85U G124C,≤ -4.2
12,C10U C18G A19C A40U C87G G88U,≤ -4.2
13,C10G A40C U78G G84U G88U G141U,≤ -4.2
14,U9G C96U A97G C103G A115U U127A,≤ -4.2
15,G11C G50A U56A G83U C93A U127C U135C,≤ -4.2
16,A12C G50A G59C G92U,-2.67
17,U9G U44G G50A U82C C95U U139G,≤ -4.2
18,C10U A29G A47C U55G A60U C95U U144A U146G,≤ -4.2
19,C10G C95U,-3.16
20,C10G C85G G92A C125G,≤ -4.2
21,A12C A24G A52C A60C,≤ -4.2
22,G11U U13G G62U C69U G81A C87U,≤ -4.2
23,U9G C14G A110C C123U G141A,≤ -4.2
24,G11A A26G U55A C87A G124C G143C U148C,≤ -4.2

row,Variant,polymerase ribozyme fitness (log ratio)
1,C10U A52U C85A,≤ -4.2
2,C10G C32A G58U G59U U130C,≤ -4.2
3,A12C C54U,-0.207
4,C10A C14G A19U A30C C93U,≤ -4.2
5,G11U C54U C72A U90G G92U U111G U148G,≤ -4.2
6,G11U C35U C51U U55G G59U G68A G80A G83A,≤ -4.2
7,C10U A12C G34A G92C,-4.16
8,G11U C93G,-3.88
9,A12C A24U A37G A52C C75U C93U,≤ -4.2
10,C10A G59A A91U U111A U127C A138U A150G,≤ -4.2
11,A12C C38U G50C U53A U55G G71U G92U U148C,≤ -4.2
12,C10A A12G A17U C32A C96U A110U C116U A147C,≤ -4.2
13,G11A G34C U56A C57U C99G A142C,≤ -4.2
14,C10A A66U G81A G94U U134A,≤ -4.2
15,A12C A64U G68C G84U A106C U145G,≤ -4.2
16,G11C U55A C76G G140U,≤ -4.2
17,C10A A17C G34A A91C U102G G140U,-3.67
18,C10A A23G C32A C38U G46U G59A A60G A97G,≤ -4.2
19,A12C A113G A119U U145A,-3.25
20,C10A A12G U53A U55A G92C G94C C105U,≤ -4.2
21,A12C A52C C87U A89C,-3.43
22,C10A U53A C85A C96G G100A U127C U146A,≤ -4.2
23,G11C C38U C76U U78G A97G G124U,≤ -4.2
24,C10U C105A,-3.59

row,Variant,polymerase ribozyme fitness (log ratio)
1,G11A C85A,-2.76
2,G11A C85U,-1.56
3,G11C C63U G83A A115U U135A U146C G152U,≤ -4.2
4,C10U G94A,-2.69
5,C10G C14U G50C C54A C76G C105G,≤ -4.2
6,G11C U15G A40C C87A U148G,≤ -4.2
7,C10U G80C G84U C87A C105A U151G,≤ -4.2
8,C10A G58C A66U G80A C95U C96U U144G,≤ -4.2
9,G11U A40U G84A A110G,-3.56
10,C10U G84U,-4.13
11,A12C G58A G84U A115U,-3.83
12,U9G U15C A19U C35G A113U C132U,≤ -4.2
13,C10A A12G A60G C93A,≤ -4.2
14,G11A A26U G48A U109C A147G,≤ -4.2
15,C10G C93U,-3.86
16,A12C A20C A26G,≤ -4.2
17,G11U C14G G46A U55A C87U,≤ -4.2
18,G11A A12C A23C G46A A73U G80C A97U U109A U145A,≤ -4.2
19,G11U G25C C32U G50C A60G C95U,≤ -4.2
20,G11A U55A A73G,-1.2
21,G11A G86A,-2.24
22,A12C A30G C38A C51A U56G C85G C95U A106G U111A,≤ -4.2
23,G11A G84A C85U G88A C99A C131G U139C,≤ -4.2
